# Test results from US20100034737A1 (published 2010).
# T1: mouse JAM-C on the surface of GL261-233R (JAM-C rescued) and GL261-233RC (JAM-C knock-down) mouse glioma cells (mouse, UniProt Q9D8B7 30-310)
# T1 construct: whole, on cells; also called JAM-C on the surface of glioma cells
# T1 sequence (looked up): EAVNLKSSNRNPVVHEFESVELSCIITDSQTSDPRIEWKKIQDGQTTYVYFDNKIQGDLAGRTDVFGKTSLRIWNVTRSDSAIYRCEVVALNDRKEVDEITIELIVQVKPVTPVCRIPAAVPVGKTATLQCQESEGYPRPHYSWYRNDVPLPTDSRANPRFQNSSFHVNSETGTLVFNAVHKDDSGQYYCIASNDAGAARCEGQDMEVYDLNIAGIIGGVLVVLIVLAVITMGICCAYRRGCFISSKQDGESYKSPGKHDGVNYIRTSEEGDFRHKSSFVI
# Biological target: T1, mouse JAM-C on the surface of …
# Test: flow cytometry of sJAM-B-Fc on GL261-233RC and GL261-233R cells (FIG. 22 A, B) and c-Src ELISA
# Method: Cells were then washed with PBS, 0.2% FCS and 0.01% azide and analysed.
# Amounts of total c-Src protein and of active phosphorylated-c-Src were quantified using FACE c-Src ELISA kit (Active Motif, CA, USA). […] At day 2, cells were incubated 30 min on ice and then 20 min at 37° C. with recombinant mouse JAM-B/Fc chimera antibody (R&D, MN, USA) at a final concentration of 5 μg/ml. Cells were then fixed and analysed with c-Src ELISA following the manufacturer's instructions (colorimetric Assay for adherent cells).
binder,measurement,value
"Recombinant Mouse JAM-B/Fc Chimera (Fc fusion, UniProt Q9JI59 29-236, looked up, extracellular domain; Bought from R&D; also called sJAM-B-Fc chimera; soluble JAM-B; not shown: Fc part, detected with anti-human Fc antibody) FSASKDHRQEVTVIEFQEAILACKTPKKTTSSRLEWKKVGQGVSLVYYQQALQGDFKDRAEMIDFNIRIKNVTRSDAGEYRCEVSAPTEQGQNLQEDKVMLEVLVAPAVPACEVPTSVMTGSVVELRCQDKEGNPAPEYIWFKDGTSLLGNPKGGTHNNSSYTMNTKSGILQFNMISKMDSGEYYCEARNSVGHRRCPGKRMQVDVLN",binding result,binds
